# Biological target: GvpT (B. megaterium)
# Assay: SDS-PAGE and Western blot
substance,measurement,value
GvpT (natural protein),stoichiometry N,2

# Reference: doi:10.1101/2023.07.23.550228
